# Earlier results as cited in article PMC10105536.
# Several values for one entry are separate records, joined by “and”; a condition that tells them apart may be missing. Equal values may be shown once.
# Target: EGFR (Homo sapiens) (UniProt P00533)
substance,measurement,value
EGF (from UniProt P01133),Kd,0.3 nM and 2 nM
